Results published in US20140287419A1, “Compositions Having Dicamba Decarboxylase Activity and Methods of Use” (priority 2013, published 2014).
Substitutions are numbered along the chain they refer to. In names and notes the source's numbering stands.

B1: SEQ ID NO:120: Design variant of SEQ ID NO: 100 (protein)
chain: MAIIDCHGHYTTTPKGVETYRNAQKAAVAKDPSFKYEKGQVVVSDDEIRESIENNQLKMQRERGTDLTIFSPRSTAGGHHIGNEYTSQFWTEHQNDLIRRVCDLFPKNFAPVAQLPQSPGVDPAKSVPEIVRTVEQMGFIGINLNPDPSGGYWKDTSLADRAFYPIYEKMVEYDIPAMIHPRNACNDCFHTTGSHALGADTTGFQQLIMSDVFKDFPSLKIIIPHGGGAVPYHWGRFRGLMQDQGYAPLEESALKNIYFDTCVYHQRGIDLLLDIVPTQNILFASEMIGAVRGIDAETGHNFDDTKRYIDNNTALNAEEKAMIFEGNARRVFSRLKTD
modifications: Dicamba decarboxylase variant clone DC.12.002
B2: SEQ ID NO:117: Design variant of SEQ ID NO: 95 (protein)
chain: MAKKPRIDMHSHFFPRISEQEAAKFDANHAPWLQVSAKGDTGSIMMGKNNFRPVYQALWDPAFRIEEMDAQGVDVQVTCATPVMFGYTWEANKAAQWAERMNDFALEFAAHNPQRIKVLAQVPLQDLDLACKEASRAVAAGHLGIQIGNHLGDKDLDDATLEAFLTHCANEDIPILVHPWDMMGGQRMKKWMLPVLVAAPAEVQLAILSLILSGAFERIPKSLKICFAGGGGSFAFLLGIVDLAWRHRDIVREDCPRPPSEYVDRFFVDSLVFNPGALELLVSVMGEDRVMLGSDYPFPTGEQKIGGLVLSSNLGESAKDKIISGNASKFFNINV
modifications: Dicamba decarboxylase variant clone DC.5.008
B3: SEQ ID NO:118: Design variant of SEQ ID NO: 95 (protein)
chain: MAKKPRIDMHSHFFPRISEQEAAKFDANHAPWLQVSAKGDTGSIMMGKNNFQPVYQALWDPAFRIEEMDAQGVDVQVTCATPVMFGYTWEANKAAQWAERMNDFALEFAAHNPQRIKVLAQVPLQDLDLACKEASRAVAAGHLGIQIGNHLGDKDLDDATLEAFLTHCANEDIPILVHGTDMMGGQRMKKWGLPWLVALAAEVQLAILSLILSGAFERIPKSLKICFSHGGGSFAFLLGLVDEAWRHVDIVREDCPRPPSEYVDRFFVDSVGNPGALELLVSVMGEDRVMLGSDYPHTTGEQKIGGLVLSSNLGESAKDKIISGNASKFFNINV
modifications: Dicamba decarboxylase variant clone DC.5.033
B4: SEQ ID NO:119: Design variant of SEQ ID NO: 95 (protein)
chain: B3 chain with T180W, P194Y, L199H, A200H, L237T, L240W, H297L
modifications: Dicamba decarboxylase variant cloneDC.5.034
B5: A64S: point mutation A64S of SEQ ID NO:109 (protein)
chain: MAQGKVALEEHFAIPETLQDSAGFVPGDYWKELQHRLLDIQDTRLKLMDAHGIETMILSLNAPSVQAIPDRRKAIEIARRANDVLAEECAKRPDRFLAFAALPLQDPDAATEELQRCVNDLGFVGALVNGFSQEGDGQTPLYYDLPQYRPFWGEVEKLDVPFYLHPRNPLPQDSRIYDGHPWLLGPTWAFAQETAVHALRLMASGLFDEHPRLNIILGHMGEGLPYMMWRIDHRVAWVKLPPRYPAKRRFMDYFNENFHITTSGNFRTQTLIDAILEIGADRILFSTDWPFENIDHASDWFNATSIAEADRVKIGRTNARRLFKLDGA
modifications: Dicamba decarboxylase variant clone DC.4.032
B6: L240D: point mutation L240D of SEQ ID NO:109 (protein)
chain: B5 chain with S64A, L240D
modifications: Dicamba decarboxylase variant clone DC.4.032
B7: V235I: point mutation V235I of SEQ ID NO:109 (protein)
chain: B5 chain with S64A, V235I
modifications: Dicamba decarboxylase variant clone DC.4.032
B8: L240A: point mutation L240A of SEQ ID NO:109 (protein)
chain: B5 chain with S64A, L240A
modifications: Dicamba decarboxylase variant clone DC.4.032
B9: N214Q: point mutation N214Q of SEQ ID NO:109 (protein)
chain: B5 chain with S64A, N214Q
modifications: Dicamba decarboxylase variant clone DC.4.032

Test: 14C assay with purified protein (14CO2 captured on Ca(OH)2 filter paper)
Assay type: biochemical
Conditions: [14C]-carboxyl-labeled dicamba
For B1, the CO2 product was “not detected”. With B2 the CO2 product was “not detected”. With B3 the CO2 product was “not detected”. For B4, the CO2 product was “not detected”.

Test: Detection of 2,5-DCA product by toluene capture or head-space GC/MS
Assay type: biochemical
Conditions: purified protein, toluene capturing
Experimental: Alternatively, dicamba decarboxylase activity can be monitored by measuring decarboxylation products other than CO2 using product detection methods. The decarboxylation product of dicamba, 2,5-dichloro anisole or 2,5-DCA (FIG. 1C), is a volatile compound with a flash point of 21° C. To capture this volatile compound for detection, 140 ul of toluene solution is added on top of 1 ml reaction mixture to form a trapping layer in a 1.5 ml eppendorf tube. […] The reaction is kept still at room temperature overnight before being vortex mixed and centrifuged at 14,000 rpm for 15 minutes. The top toluene phase is carefully removed using a micropipette and transferred into a 12×32 mm polypropylene vial (Vial 11 mm) from MicroLiter Analytical Supplies, Inc. (catalog number 11-5300-100). The vial is sealed with Crimp seal (11 mm with FEP/Nat Rubber) from MicroLiter Analytical Supplies, Inc. (catalog number 11-0020A) using a E-Z Crimper™ 11 mm from Wheaton Inc. 1 ul of the toluene mixture is taken from the sealed vials and injected in splitless mode into a GC/MS system for sample analysis (Agilent GC/MS system with a 6890A GC, a 5973N MSD and a CTC CombiPAL auto-sampler or with a 7890A GC, a 5975C MSD and an Agilent GC Sampler 80 auto-sampler). The GC parameters are: Agilent DB-5MS column (30 m length, 0.25 mm diameter, 0.25 um film) or equivalent; The GC inlet temperature, 250° C.; Carry gas, helium in constant flow mode (1.2 mL/min); The GC oven temperature program, initial temperature at 70° C. for 1 min, ramping to 200° C. at 15° C./min, and then ramping to 250° C. at 30° C./min. MS data acquisition is done in SIM (selected ion monitoring) mode, monitoring the positive ion at M/Z 176 for the molecular ion of […]. The solvent delay for MS acquisition is set at 4 min. Another method for detection of 2,5-DCA is a head-space GC/MS method. Briefly, reaction mixtures in 500 ul reaction volume are prepared in 1.5 ml×32 mm glass vials (Microliter Analytical Supplies, Cat#11-1200) for head space analysis. Glass vials are sealed with magnetic cap from MicroLiter Analytical Supplies, Inc. (catalog number 11-0030AT) using a E-Z Crimper™ 11 mm from Wheaton Industries Inc. The reaction is carried out at room temperature for various amount of time and stopped by heating at 95° C. for 5 min. The reaction vial is transferred to a agitator for incubation at 80° C. for 5 min at 500 rpm. With a syringe preheated at 80° C., 1000 uL of head space is injected with sample fill speed at 100 uL/sec. GC/MS parameters for headspace analysis are the same as for liquid sample analysis.
In the case of B1, the “2,5-DCA product” value is reported as “detected”. With B2 the “2,5-DCA product” value was “detected”. With B3 the “2,5-DCA product” value was “detected”. With B4 the “2,5-DCA product” value was “detected”.

Test: Detection of 4-chloro-3-methoxy phenol product by LC-MS/MS
Assay type: biochemical
Conditions: purified protein
Experimental: The decarboxylated and chloro hydrolyzed product, 4-chloro-3-methoxy phenol (FIG. 1D), is measured using a LC-MS/MS analytical procedure. […] 10 ul is removed from the reaction mixture and mixed with 90 ul pre-chilled methanol followed by centrifugation at 14,000 rpm for 15 min at 4° C. 10 ul of the supernatant is then transferred into 170 ul ddH2O to achieve 5% methanol solution for injection. 50 ul of the prepared sample is injected into a 4000 Q Trap LC-MS/MS system for sample analysis. LC-MS/MS parameters are: Mobile Phase A, 2 mM ammonium acetate in water; Mobile Phase B, 2 mM ammonium acetate in methanol; Column, Aquasil, 100×2.1 mm, 3 μm, C18 column; Flow Rate, 0.6 ml/min. The MS/MS fragment 157/142 which is common to 4-chloro-3-methoxy phenol, 2-chloro-5-methoxy phenol, and 3-chloro-5-methoxy phenol is monitored at a retention time of 2.88 min.
With B1 the 4-chloro-3-methoxy phenol product was “not detected”. For B2, the 4-chloro-3-methoxy phenol product was “not detected”. For B3, the 4-chloro-3-methoxy phenol product was “not detected”. With B4 the 4-chloro-3-methoxy phenol product was “not detected”.

Test: Detection of 2,5-DCP product by GC/MS
Assay type: biochemical
Conditions: purified protein
Experimental: The decarboxylated and demethylated product of dicamba, 2,5-dichloro phenol or 2,5-DCP (FIG. 1E) is measured using a GC/MS analytical procedure with either liquid injection after liquid/liquid extraction using toluene as the extraction solvent or gas injection using head space method. The head space sample analysis is carried out on an Agilent GC/MS system with a 6890A GC, a 5973N MSD and a CTC CombiPAL auto-sampler or with a 7890A GC, a 5975C MSD and an Agilent GC Sampler 80 auto-sampler with Phenomenex ZB-MultiResidue-1 column (30 m length, 0.25 mm diameter, 0.25 um film) or equivalent. GC/MS parameters are: GC inlet temperature, 200° C.; Carry gas, helium in constant flow mode (1.2 mL/min); Oven temperature program, 70° C. for 1 min and then ramp to 275° C. at 40° C./min. […] The reaction vial is transferred to a agitator for incubation at 90° C. for 4 min at 500 rpm. With a syringe preheated at 110° C., 1000 uL of head space is injected with sample fill speed at 100 uL/sec. A 2-mm diameter liner is used in sample inlet. The MS data acquisition is done in SIM (selected ion monitoring) mode. The positive ion at M/Z 162 for the molecular ion of 2,-5-DCP is monitored at retention time of 4.06 min. Solvent delay for MS acquisition is set at 3 min. GC/MS parameters for liquid sample analysis are the same as those for head space analysis, except that the volume of liquid injection is 1 uL.
With B1 the “2,5-DCP product” value was “not detected”. In the case of B2, the “2,5-DCP product” value is reported as “not detected”. With B3 the “2,5-DCP product” value was “not detected”. For B4, the “2,5-DCP product” value was “not detected”.

Test: Dicamba decarboxylation activity of computationally designed protein variants
Conditions: native protein or designed variant versus parent
In the case of B1, the “Dicamba Decarboxylase Activity” value is reported as “have dicamba decarboxylase activity”. For B2, the “Dicamba Decarboxylase Activity” value was “have dicamba decarboxylase activity”. For B3, the “Dicamba Decarboxylase Activity” value was “have dicamba decarboxylase activity”. With B4 the “Dicamba Decarboxylase Activity” value was “have dicamba decarboxylase activity”.

Test: Saturation mutagenesis of SEQ ID NO:109, dicamba decarboxylation activity of point mutants
Conditions: dicamba decarboxylation activity of point mutants of SEQ ID NO: 109 (NNK saturation mutagenesis), relative to the unchanged template
For B5, the “Average Activity (Fold of SEQ ID NO: 109)” value was 2.1 Fold of SEQ ID NO: 109. For B6, the “Average Activity (Fold of SEQ ID NO: 109)” value was 2.2 Fold of SEQ ID NO: 109. With B7 the “Average Activity (Fold of SEQ ID NO: 109)” value was 1.8 Fold of SEQ ID NO: 109. In the case of B8, the “Average Activity (Fold of SEQ ID NO: 109)” value is reported as 2.3 Fold of SEQ ID NO: 109. With B9 the “Average Activity (Fold of SEQ ID NO: 109)” value was 1.8 Fold of SEQ ID NO: 109.

Same assay, conditions: dicamba decarboxylation activity of single point mutants of SEQ ID NO:109, relative to unchanged template
In the case of B7, the “Average Activity (Fold of SEQ ID NO: 109)” value is reported as 1.8 Fold of SEQ ID NO: 109. In the case of B9, the “Average Activity (Fold of SEQ ID NO: 109)” value is reported as 1.8 Fold of SEQ ID NO: 109.
